The target in one assay is cholesterol sulfate. Description: microscale thermophoresis. As to conditions: measurements in triplicates. Background: In MST a laser heats a spot of the sample, and binding alters the fluorescence response.
The target of assay [1] is T1, prostate secretory protein of 94 amino acids (PSP94), C-terminal polyhistidine tag (human, UniProt P08118 21-114).
T1 chain: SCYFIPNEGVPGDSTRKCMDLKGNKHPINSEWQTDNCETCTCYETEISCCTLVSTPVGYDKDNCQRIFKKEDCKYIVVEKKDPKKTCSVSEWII
Description: MST.

Assay [2] addresses T1, prostate secretory protein of 94 amino …. Description: MST.
Assay [3] concerns sterol export by CAP proteins (Pry1, CRISP2, CRISP3). Description: In vivo sterol export assay ([14C]cholesteryl acetate export) in yeast. It counts as cell-based, Saccharomyces cerevisiae. Conditions: co-expression with CRISP2 in quadruple mutant yeast. The text has this: To test whether expression of PSP94 would affect the function of Pry1 in sterol export, we expressed PSP94 fused to the N-terminal signal sequence from Pry1 (amino acids 1–19) from a constitutive alcohol dehydrogenase promoter (ADH1) to direct the protein into the yeast secretory pathway. This PSP94-containing plasmid was then transformed into heme-deficient yeast cells lacking the sterol deacetylase Say1 (hem1Δ say1Δ). This strain is able to take up radiolabeled [^14C]cholesterol, acetylate it in an alcohol acetyltransferase 2 (Atf2)-dependent pathway, and secrete the resulting radiolabeled cholesteryl acetate back into the culture medium ([29]). […] To test whether expression of PSP94 would affect the synthesis or secretion of Pry1, CRISP2, or CRISP3, we coexpressed FLAG-tagged PSP94 with hemagglutinin (HA)-tagged Pry1, CRISP2, or CRISP3, separated yeast cells from the culture medium, precipitated proteins from both fractions with trichloroacetic acid (TCA), and detected the tagged proteins by Western blotting.
The sterol export assay was performed as described ([29]). […] Extracted radiolabeled lipids were quantified by scintillation counting, and volumes corresponding to 10,000 cpm (counts per minute) were dried. […] TLC plates were then exposed to phosphorimager screens, and radiolabeled lipids were visualized and quantified using a phosphorimager. […]

Where [4] appears, read: cholesterol sulfate titrated (x axis Cholesterol sulfate [µM]).

Changes are numbered by the printed parent chain. Numbers in names are those of the source. Where two headings read alike, the source gives them in different places.

Take “CRISP2 (cysteine-rich secretory protein 2), C-terminal polyhistidine tag (from UniProt P16562) L98G; Y99P”: the dissociation constant Kd with cholesterol sulfate (in the presence of PSP94) stood at 0.5 µM; with cholesterol sulfate (setting [4]), 2.2 µM.

In the assay with cholesterol sulfate (setting [4]), “CRISP2 (cysteine-rich secretory protein 2), C-terminal polyhistidine tag (from UniProt P16562) N97P; L98G” registered a Kd of 3.8 µM.

On to “CRISP2 (cysteine-rich secretory protein 2), C-terminal polyhistidine tag (from UniProt P16562) N97P; Y99P”, for which the Kd in the assay with cholesterol sulfate (setting [4]) worked out at 2.7 µM.

B1: CAP domain of Pry1 (Pry1^CAP), C-terminal polyhistidine tag (domain or fragment)
chain: SASSSDSDLSDFASSVLAEHNKKRALHKDTPALSWSDTLASYAQDYADNYDCSGTLTHSGGPYGENLALGYDGPAAVDAWYNEISNYDFSNPGFSSNTGHFTQVVWKSTTQVGCGIKTCGGAWGDYVICSYDPAGNYEGEYADNVEPLA
modifications: RED-tris-NTA fluorescent label on the His tag
B1: in assay [1], binding was characterised by a dissociation constant (Kd) of 63 nM.

B2: CRISP3 (cysteine-rich secretory protein 3), C-terminal polyhistidine tag (natural protein)
chain: NEDKDPAFTALLTTQTQVQREIVNKHNELRRAVSPPARNMLKMEWNKEAAANAQKWANQCNYRHSNPKDRMTSLKCGENLYMSSASSSWSQAIQSWFDEYNDFDFGVGPKTPNAVVGHYTQVVWYSSYLVGCGNAYCPNQKVLKYYYVCQYCPAGNWANRLYVPYEQGAPCASCPDNCDDGLCTNGCKYEDLYSNCKSLKLTLTCKHQLVRDSCKASCNCSNSIY
modifications: RED-tris-NTA fluorescent label on the His tag
Take B2: the dissociation constant (Kd) in assay [1] was determined as 46 nM.

B3: CRISP2 N97P L98G (protein)
chain: KDPAFTALLTTQLQVQREIVNKHNELRKAVSPPASNMLKMEWSREVTTNAQRWANKCTLQHSDPEDRKTSTRCGEPGYMSSDPTSWSSAIQSWYDEILDFVYGVGPKSPNAVVGHYTQLVWYSTYQVGCGIAYCPNQDSLKYYYVCQYCPAGNNMNRKNTPYQQGTPCAGCPDDCDKGLCTNSCQYQDLLSNCDSLKNTAGCEHELLKEKCKATCLCENKIY
modifications: limits not printed: mature chain by convention (pelB secretion in E. coli, C-terminal His tag left out); residue numbers match the precursor
Molecule B3 registered a dissociation constant (Kd) in assay [2] of 4 nM.

B4: PSP94^F24G: point mutant version of PSP94 (F24 corresponds to F4 in the processed protein), impaired binding to CRISP3 (protein)
chain: T1 chain with F4G
modifications: left off: polyhistidine, C-terminal, state not stated
Take B4: in assay [3], the “effect on sterol binding and export by CRISP2 in vivo” value was “did not inhibit sterol binding and export”.

In general, Kd refers to the concentration at which binding is half-saturated.

These data come from article PMC8857485, “Prostate secretory protein 94 inhibits sterol binding and export by the mammalian CAP protein CRISP2 in a calcium-sensitive manner” (The Journal of Biological Chemistry, 2022).
